Where a chain is given by its changes, count along the chain named. Where two headings read alike, the source gives them in different places.
B1: hCMAb45 humanized anti-CTHRC1 antibody (antibody, V domains shown)
VH: QVQLVESGAEVKKPGASVKVSCKASGYSFTDYIILWVRQAPGQGLEWMGAINPYYGSTVYGQKFQGRLTITADGSMSTAYMELSSLRSEDTAVYYCARSGYGYDESAMDYWGQGTLVTVSS
VL: DIVMTQTPLSLPVTPGEPASISCRSSKSLLNSDGFTYLDWYLQKPGQSPQLLIYLVSNRFSGVPDRFSGSGSGTDFTLKISRVEAEDVGVYYCFQSNYLPLTFGQGTKLEIK
B2: cCMAb45 anti-CTHRC1 chimeric antibody (antibody, V domains shown)
VH: EVQLQQSGPELVKPGASVKISCKASGYSFTDYIMLWVKQSHGKSLEWIGNINPYYGSTSYNLKFKGKATLTVDKSSSTAYMQLNSLTSEDSAVYYCARSGYGYDESAMDYWGQGTSVTVSS
VL: B1 VL with I2V, V3L, T14N, P15I, E17D, P18Q, R24K, S26T, V88L, Q105S
B3: CTHRC1-His (other)
chain: GAVGASEIPKGKQKAQLRQREVVDLYNGMCLQGPAGVPGRDGSPGANGIPGTPGIPGRDGFKGEKGECLRESFEESWTPNYKQCSWSSLNYGIDLGKIAECTFTKMRSNSALRVLFSGSLRLKCRNACCQRWYFTFNGAECSGPLPIEAIIYLDQGSPEMNSTINIHRTSSVEGLCEGIGAGLVDVAIWVGTCSDYPKGDASTGWNSVSRIIIEELPKLAASANSAVDHHHHHHHH
B4: hCMAb96 humanized anti-CTHRC1 antibody (antibody, V domains shown)
VH: QVQLVQSGAEVKKPGASVKVSCKASGYTFTSYWMHWVRQAPGQGLEWIGYIYPSSGTTNYNQKFQGRVTITADESTSTAYMELSPLRSEDTAVYYCTTESYWGQGTTVTVSS
VL: DIQMTQSPSSLSASLGDTITITCHASQNINVWLAWYQQKPGKAPKLLIYKASNLHSGVPSRFSGSGSGTDFTLTISSLQPEDIATYYCQQGQSYPLTFGQGTKVEIK
B5: cCMAb96 anti-CTHRC1 chimeric antibody (antibody, V domains shown)
VH: QVQLQQPGSELVRPGASVKLSCKASGYTFTSYWMHWVKQRPGQGLEWIGNIYPSSGTTNYDEKFKNKATLTVDTSSTTAYMHLSSLTSEDSAVYYCTTESYWGQGTTLTVSS
VL: B4 VL with Q3V, A34S, K42N, A43I, S56T, D70G, Q100G, V104L

What was measured:
Assay in all cases: ELISA
CTHRC1-His [1] = biological target: B3
CTHRC1-His [2] = biological target: B3; remark: listed apart in the source
SA2773 = biological target: SA2773
SA2760 = biological target: SA2760
SA2772 = biological target: SA2772
SA2771 = biological target: SA2771
SA2764 = biological target: SA2764
SA2758 = biological target: SA2758
SA2766 = biological target: SA2766
SA2767 = biological target: SA2767
SA2763 = biological target: SA2763

Binder: B1
Kd (CTHRC1-His [1]): 0.089 nM | Kd (CTHRC1-His [2]): 0.128 nM

Binder: B2
Kd (CTHRC1-His [1]): 0.093 nM | Kd (CTHRC1-His [2]): 0.257 nM

Binder: B3
Kd (SA2773): 0.3 nM | Kd (SA2760): 0.118 nM | Kd (SA2772): 0.406 nM | Kd (SA2771): 0.221 nM | Kd (SA2764): 0.175 nM | Kd (SA2758): 0.082 nM | Kd (SA2766): 0.202 nM | Kd (SA2767): 0.48 nM | Kd (SA2763): 0.25 nM

Binder: B4
Kd (CTHRC1-His [1]): 0.131 nM | Kd (CTHRC1-His [2]): 0.196 nM

Binder: B5
Kd (CTHRC1-His [1]): 0.128 nM | Kd (CTHRC1-His [2]): 0.187 nM

Source: patent publication US20220204599A1 (published 2022)
